The target in this assay is Myc-PUM1-R1147W (human) (UniProt Q14671). The assay is described as follows: co-IP.

In the case of “GST-CNOT1 (from UniProt A5YKK6 1-2376) (natural protein)”, the percent by which the interaction is diminished against Myc-PUM1-WT turned out to be 35%.

Values taken from publication doi:10.1101/2021.03.11.435015.
